In article PMC4725753:

Target: the microbial proteins (competition ELISA with heparin, data not shown)
Assay: ELISA; data not shown; immobilised microbial proteins incubated with vitronectin (5 μg/ml) that was pre-incubated with heparin (10 μM)

“vitronectin purified from human plasma (natural protein)” gave a percent inhibition by heparin (10 μM) of 68 to 89%.
